Measured values from PMC7407445, “Role of RadA and DNA Polymerases in Recombination-Associated DNA Synthesis in Hyperthermophilic Archaea”.

Biological target: RadA recombinase (Pyrococcus abyssi, UniProt Q9V233 1-353)
Experiment: EMSA; no ATP; 25 nM ssDNA, RadA 0-6.4 uM; 20 mM Tris-HCl pH 8.0, 50 ug/mL BSA, 2 mM DTT, 0.5% Triton, 65 C, 10 min; 0.75% native agarose gel
Conditions: protein: recombinant; tags: none (untagged); label: 5' HiLyte Fluor 647; single strand

Chain of RadA recombinase (Q9V233 whole entry): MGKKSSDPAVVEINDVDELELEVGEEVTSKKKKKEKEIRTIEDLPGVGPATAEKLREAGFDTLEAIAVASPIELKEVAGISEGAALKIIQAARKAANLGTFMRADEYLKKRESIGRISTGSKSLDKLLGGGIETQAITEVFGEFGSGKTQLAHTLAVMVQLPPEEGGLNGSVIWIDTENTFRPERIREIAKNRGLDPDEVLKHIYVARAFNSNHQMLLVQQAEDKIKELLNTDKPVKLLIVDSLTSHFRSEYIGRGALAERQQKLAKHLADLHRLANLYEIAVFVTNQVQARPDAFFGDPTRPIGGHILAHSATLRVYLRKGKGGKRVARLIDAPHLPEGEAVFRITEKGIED

B1: L93-5'HL 647 (93-mer ssDNA) (ssDNA)
DNA: AAAGGCGGTAATACGGTTATCCACAGAATCAGGGGATAACGCAGGAAAGAACATGTGAGCAAAAGGCCAGCAAAAGGCCAGGAACCGTAAAAA
binding result: binds
